Assay results: patent publication US20160096874A1, “MRG RECEPTOR MODULATORS” (BAYER PHARMA AKTIENGESELLSCHAFT, priority 2013, published 2016)
Entries after “also recorded” stand apart in the source; their conditions may differ. Peptide text beside a SMILES is read from it.

T1: human MrgX2 (Homo sapiens, UniProt Q96LB1)
T1 construct: The used cell line is overexpressing MrgX2 in CHEM1 by recombinant expression; host or cells: CHEM1 (adherent rat cell line)
T1 sequence (Q96LB1 1-330): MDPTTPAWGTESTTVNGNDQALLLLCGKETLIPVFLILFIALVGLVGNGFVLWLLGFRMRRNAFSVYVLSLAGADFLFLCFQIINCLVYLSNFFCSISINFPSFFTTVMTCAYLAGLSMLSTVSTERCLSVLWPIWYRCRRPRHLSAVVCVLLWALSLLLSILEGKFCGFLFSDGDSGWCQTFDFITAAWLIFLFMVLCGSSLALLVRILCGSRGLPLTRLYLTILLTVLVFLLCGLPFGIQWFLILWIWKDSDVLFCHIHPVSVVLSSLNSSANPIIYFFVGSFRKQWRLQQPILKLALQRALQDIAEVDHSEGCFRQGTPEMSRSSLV


Legend:
[1] = target: human MrgX2 (human) (UniProt Q96LB1); test: cell-based or functional assay
[2] = target: T1, human MrgX2; test: Fluo8 assay, intracellular Calcium release in CHEM1-MrgX2 cells; format: cell-based
Description: (§1) The Fluo8 assay is a cell based assay format for the determination of intracellular Calcium release. Cell were seeded on microtiter plates and incubated under standard cell culture conditions. After 24 h the medium was removed and the cells were washed with PBS. The cells were incubated with loading buffer (40 ml PBS with 2 mM Calcium +800 μl brilliant black (2%) +732 μl pobenecid (0.5 M) in 1N NaOH +400 μl Pluronic (10%) in water +152 μl Fluo8 (5.7 μg/ml) in water) for 30 minutes.

[3] = test system: CHEM1 cells; test: Fluo8 assay, Calcium release in CHEM1 (control) cells without MrgX2 overexpression; format: cell-based, rat; settings: control cell line, same experimental conditions, result in words
Description: as §1, with “minutes. For fluorescence readout and compound testing a FLIPR tetra system was used according to the manufactures protocol (Molecular Devices, Calif. 94089-1136, USA).” for “minutes.”
The used cell lines CHEM1 and CHEM1-MrgX2 are adherent rat cell lines (Millipore, Billerica, Mass. 01821, USA) with were cultures under standard cell culture conditions.

[4] = target: T2, CXCR4 (Homo sapiens, UniProt P61073); test: CXCR4 activity assay (CRE-luciferase reporter); format: cell-based; settings: result in words
T2 construct: expressed in transfected cells
T2 sequence (P61073 whole entry, species assumed): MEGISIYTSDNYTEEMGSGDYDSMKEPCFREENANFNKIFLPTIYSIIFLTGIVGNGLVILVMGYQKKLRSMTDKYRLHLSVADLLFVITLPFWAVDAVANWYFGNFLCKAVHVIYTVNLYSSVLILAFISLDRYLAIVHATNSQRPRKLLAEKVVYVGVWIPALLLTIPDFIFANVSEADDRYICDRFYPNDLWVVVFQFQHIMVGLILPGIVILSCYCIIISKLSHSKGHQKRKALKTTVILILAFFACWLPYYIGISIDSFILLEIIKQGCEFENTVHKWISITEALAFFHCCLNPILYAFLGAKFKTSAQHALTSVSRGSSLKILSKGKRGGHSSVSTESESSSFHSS
Description: The CXCR4 receptor is a chemokine receptor and belongs to the family of G protein coupled receptors (GPCRs). Its only known endogenous ligand is stromal cell-derived factor 1 (SDF-1a). CXCR4 is a Gi coupled receptor. Its activation leads to a decrease of intracellular cAMP, which could be monitored by recombinant cAMP-responsive element (CRE) regulated luciferase expression. For the characterization of modulators of CXCR4 activity, stable cell lines expressing recombinant CXCR4 and a CRE-luciferase reporter vector were established. The cells were incubated with forskolin at a concentration of 0.5 μM, SDF-1a (at 20 nM) and test compounds and incubated for 4 h under standard cell culture conditions. Luciferase substrate was added and the luminescence was measured for 60 seconds.

| Molecule | Calcium release / activity on MrgX2 (CHEM1-MrgX2) ([2]; Fluo8 assay, result in words) | Calcium release on CHEM1 without MrgX2 [3] | further results |
| --- | --- | --- | --- |
| PAMP (from UniProt P35318 22-185) (peptide) |  |  | EC50 of calcium release (Fluo8 assay) on CHEM1-MrgX2 cells [1]: 490 nM |
| CC(C)C[C@H](NC(=O)[C@H](C)NC(=O)[C@H](Cc1c[nH]c2ccccc12)NC(=O)[C@H](CCCCN)NC(=O)[C@H](CC(N)=O)NC(=O)[C@H](Cc1c[nH]c2ccccc12)NC(=O)[C@H](CCCCN)NC(=O)[C@H](CCCCN)NC(=O)[C@H](CCCNC(=N)N)NC(=O)[C@H](Cc1ccccc1)NC(=O)[C@H](CCC(=O)O)NC(=O)[C@H](CO)NC(=O)[C@H](C)NC(=O)[C@@H](NC(=O)[C@H](CC(=O)O)NC(=O)[C@H](CC(C)C)NC(=O)[C@H](CCCNC(=N)N)NC(=O)[C@H](C)N)C(C)C)C(=O)N[C@@H](CO)C(=O)N[C@@H](CCCNC(=N)N)C(N)=O [PAMP, reference compound] (H-ARLDVASEFRKKWNKWALSR-NH2) | dose dependent Calcium release | not in CHEM1 |  |
| human CXCL14 (from UniProt O95715 35-111) (ligand) |  |  | EC50 of intracellular calcium release (Fluo8 assay) on CHEM1-MrgX2 cells [1]: 570 nM |
| NPY: peptide analyzed to characterize the specificity of CXCL14 to MrgX2 activation [reference compound] | Neither NPY or angiotension II nor galanin show a dose dependent Calcium release | Neither NPY or angiotension II nor galanin show a dose dependent Calcium release |  |
| angiotensin II (DRVYIHPF) [reference compound] | Neither NPY or angiotension II nor galanin show a dose dependent Calcium release | Neither NPY or angiotension II nor galanin show a dose dependent Calcium release |  |
| Chemokine (C-X-C motif) ligand 14 (protein, listed as Homo sapiens, small cytokine belonging to the CXC chemokine family) SKCKCSRKGPKIRYSDVKKLEMKPKYPHCEEKMVIITTKSVSRYRGQEHCLHPKLQSTKRFIKWYNAWNEKRRVYEE | activated by CXCL14 in a dose dependent matter; also recorded: specific agonist | no significant calcium release | EC50 ([2]; Calcium release, Fluo8 assay, CHEM1 overexpressing MrgX2): 570 nM; activity on G-protein coupled receptor CXCR4 [4]: antagonist |
| Mouse CXCL14: mouse CXCL14, amino acid sequence in FIG. 19; differs from human by two amino acid residues (protein) SKCKCSRKGPKIRYSDVKKLEMKPKYPHCEEKMVIVTTKSMSRYRGQEHCLHPKLQSTKRFIKWYNAWNEKRRVYEE | dose dependent Calcium release | not on CHEM1 without MrgX2 | EC50 on CHEM1-MrgX2 compared with human CXCL14 ([2]; Calcium release, result in words): comparable EC50 |
